Source: US20140271651A1

How the values were obtained:
[1] = target: GP73-hFc (human GP73 amino acids 63 to 400 fused at the C-terminus to human IgG1 Fc) (human); experiment: sandwich EIA on GP73-hFc, coated NC, second antibody NC-Bt
[2] = target: GP73-hFc (human GP73 amino acids 63 to 400 fused at the C-terminus to human IgG1 Fc) (human); experiment: sandwich EIA on GP73-hFc, coated 1A-3187, second antibody NC-Bt
[3] = target: GP73-hFc (human GP73 amino acids 63 to 400 fused at the C-terminus to human IgG1 Fc) (human); experiment: sandwich EIA on GP73-hFc, coated 1A-4246, second antibody NC-Bt
[4] = target: GP73-hFc (human GP73 amino acids 63 to 400 fused at the C-terminus to human IgG1 Fc) (human); experiment: sandwich EIA on GP73-hFc, coated 1B-3246, second antibody NC-Bt
[5] = target: GP73-hFc (human GP73 amino acids 63 to 400 fused at the C-terminus to human IgG1 Fc) (human); experiment: sandwich EIA on GP73-hFc, coated 1B-3440, second antibody NC-Bt
[6] = target: GP73-hFc (human GP73 amino acids 63 to 400 fused at the C-terminus to human IgG1 Fc) (human); experiment: sandwich EIA on GP73-hFc, coated 1B-4863, second antibody NC-Bt
[7] = target: GP73-hFc (human GP73 amino acids 63 to 400 fused at the C-terminus to human IgG1 Fc) (human); experiment: sandwich EIA on GP73-hFc, coated 1B-4971, second antibody NC-Bt
[8] = target: GP73-hFc (human GP73 amino acids 63 to 400 fused at the C-terminus to human IgG1 Fc) (human); experiment: sandwich EIA on GP73-hFc, coated NC, second antibody 1A-3187-Bt
[9] = target: GP73-hFc (human GP73 amino acids 63 to 400 fused at the C-terminus to human IgG1 Fc) (human); experiment: sandwich EIA on GP73-hFc, coated NC, second antibody 1A-4246-Bt
[10] = target: GP73-hFc (human GP73 amino acids 63 to 400 fused at the C-terminus to human IgG1 Fc) (human); experiment: sandwich EIA on GP73-hFc, coated NC, second antibody 1B-3246-Bt
[11] = target: GP73-hFc (human GP73 amino acids 63 to 400 fused at the C-terminus to human IgG1 Fc) (human); experiment: sandwich EIA on GP73-hFc, coated NC, second antibody 1B-3440-Bt
[12] = target: GP73-hFc (human GP73 amino acids 63 to 400 fused at the C-terminus to human IgG1 Fc) (human); experiment: sandwich EIA on GP73-hFc, coated NC, second antibody 1B-4863-Bt
[13] = target: GP73-hFc (human GP73 amino acids 63 to 400 fused at the C-terminus to human IgG1 Fc) (human); experiment: sandwich EIA on GP73-hFc, coated NC, second antibody 1B-4971-Bt

Chain of GP73-hFc (human GP73 amino acids 63 to 400 fused at the C-terminus to human IgG1 Fc) (human) (chain, as listed by the source limits assumed): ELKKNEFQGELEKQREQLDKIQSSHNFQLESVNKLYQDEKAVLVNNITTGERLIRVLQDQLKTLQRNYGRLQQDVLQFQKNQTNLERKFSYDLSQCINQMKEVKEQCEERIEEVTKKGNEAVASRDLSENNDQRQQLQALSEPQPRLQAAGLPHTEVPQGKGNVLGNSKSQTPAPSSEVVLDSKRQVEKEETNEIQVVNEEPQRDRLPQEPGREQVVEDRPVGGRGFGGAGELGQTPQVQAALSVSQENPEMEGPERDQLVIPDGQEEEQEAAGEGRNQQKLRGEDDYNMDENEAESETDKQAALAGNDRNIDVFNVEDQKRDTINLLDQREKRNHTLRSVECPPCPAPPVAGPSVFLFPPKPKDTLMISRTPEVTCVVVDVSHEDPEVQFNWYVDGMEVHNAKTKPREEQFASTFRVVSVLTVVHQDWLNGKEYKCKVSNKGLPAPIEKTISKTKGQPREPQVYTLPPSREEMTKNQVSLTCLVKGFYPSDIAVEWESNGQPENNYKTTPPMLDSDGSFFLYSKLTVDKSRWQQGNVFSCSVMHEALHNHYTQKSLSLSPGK

- sandwich assay signal (A492) [1]: 0.06 A492
- sandwich assay signal (A492) [2]: 0.06 A492
- sandwich assay signal (A492) [3]: 0.08 A492
- sandwich assay signal (A492) [4]: 0.06 A492
- sandwich assay signal (A492) [5]: 3.07 A492
- sandwich assay signal (A492) [6]: 0.06 A492
- sandwich assay signal (A492) [7]: 0.06 A492
- sandwich assay signal (A492) [8]: 0.09 A492
- sandwich assay signal (A492) [9]: 0.05 A492
- sandwich assay signal (A492) [10]: 0.05 A492
- sandwich assay signal (A492) [11]: 0.05 A492
- sandwich assay signal (A492) [12]: 0.05 A492
- sandwich assay signal (A492) [13]: 0.06 A492
Substance: negative control monoclonal antibody
